The values that follow come from patent US20120034160A1 (AbbVie / Abbott, published 2012).

First the molecules themselves.
T1: Recombinant Human IL-17 (human, UniProt Q16552 20-155, limits assumed)
T1 construct: bought reagent
T1 sequence (looked up): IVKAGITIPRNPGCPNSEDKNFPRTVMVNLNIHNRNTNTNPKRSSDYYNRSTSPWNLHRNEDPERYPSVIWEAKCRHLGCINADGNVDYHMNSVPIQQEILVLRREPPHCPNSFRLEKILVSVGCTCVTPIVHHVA

B1: DVD1279 (bispecific antibody, human IgG1, kappa)
heavy: not shown
light: EIVLTQSPDFQSVTPKEKVTITCRASQDIGSELHWYQQKPDQPPKLLIKYASHSTSGVPSRFSGSGSGTDFTLTINGLEAEDAGTYYCHQTDSLPYTFGPGTKVDIKRTVAAPDTVVTQSPAFLSVTPGEKVTITCITSTDIDVDMNWYQQKPDQPPKLLISQGNTLRPGVPSRFSSSGSGTDFTFTISSLEAEDAATYYCLQSDNLPLTFGQGTKLEIKRTVAAPSVFIFPPSDEQLKSGTASVVCLLNNFYPREAKVQWKVDNALQSGNSQESVTEQDSKDSTYSLSSTLTLSKADYEKHKVYACEVTHQGLSSPVTKSFNRGEC
notes: DVD-Ig, outer AB274, inner AB271, linker set 1; V1 wt hIgG1, V2 kappa; also called DVD1279H; DVD1279L
B2: DVD1277 (bispecific antibody, human IgG1, kappa)
heavy: not shown
light: EIVLTQSPDFQSVTPKEKVTITCRASQDIGSELHWYQQKPDQPPKLLIKYASHSTSGVPSRFSGSGSGTDFTLTINGLEAEDAGTYYCHQTDSLPYTFGPGTKVDIKRTVAAPDTQVTQSPSSLSASVGDRVTITCITSTDIDVDMNWYQQKPGKPPKLLISQGNTLRPGVPSRFSSSGSGTDFTFTISSLQPEDFATYYCLQSDNLPLTFGQGTKLEIKRTVAAPSVFIFPPSDEQLKSGTASVVCLLNNFYPREAKVQWKVDNALQSGNSQESVTEQDSKDSTYSLSSTLTLSKADYEKHKVYACEVTHQGLSSPVTKSFNRGEC
notes: DVD-Ig, outer AB274, inner AB270, linker set 1; V1 wt hIgG1, V2 kappa; also called DVD1277H; DVD1277L
B3: DVD1281 (bispecific antibody, human IgG1, kappa)
heavy: not shown
light: B2 light with D114E, Q116T
notes: DVD-Ig, outer AB274, inner AB272, linker set 1; V1 wt hIgG1, V2 kappa; also called DVD1281H; DVD1281L
B4: DVD1273 (bispecific antibody, human IgG1, kappa)
heavy: not shown
light: EIVLTQSPDFQSVTPKEKVTITCRASQDIGSELHWYQQKPDQPPKLLIKYASHSTSGVPSRFSGSGSGTDFTLTINGLEAEDAGTYYCHQTDSLPYTFGPGTKVDIKRTVAAPDIQMTQSPSSLSASVGDRVTITCRASGNIHNYLTWYQQTPGKAPKLLIYNAKTLADGVPSRFSGSGSGTDYTFTISSLQPEDIATYYCQHFWSIPYTFGQGTKLQITRTVAAPSVFIFPPSDEQLKSGTASVVCLLNNFYPREAKVQWKVDNALQSGNSQESVTEQDSKDSTYSLSSTLTLSKADYEKHKVYACEVTHQGLSSPVTKSFNRGEC
notes: V1 wt hIgG1, V2 kappa; also called DVD1273H; DVD1273L
B5: DVD1283 (bispecific antibody, human IgG1, kappa)
heavy: not shown
light: B4 light with D28N, P43S, T55I, G84A, T91S, S93T, Y96H, P100Q
notes: V1 wt hIgG1, V2 kappa; also called DVD1283H; DVD1283L
B6: DVD1285 (bispecific antibody, human IgG1, kappa)
heavy: not shown
light: B4 light with D28N, P43S, T55I, G84A, T91S, S93T, Y96H, P100Q
notes: V1 wt hIgG1, V2 kappa; also called DVD1285H; DVD1285L
B7: DVD1275 (bispecific antibody, human IgG1, kappa)
heavy: not shown
light: B4 light
notes: V1 wt hIgG1, V2 kappa; also called DVD1275H; DVD1275L
B8: DVD1269 (bispecific antibody, human IgG1, kappa)
heavy: not shown
light: DIQMTQSPSSLSASVGDRVTITCRASSGIISYIDWFQQKPGKAPKRLIYATFDLASGVPSRFSGSGSGTDYTLTISSLQPEDFATYYCRQVGSYPETFGQGTKLEIKRTVAAPDTVVTQSPAFLSVTPGEKVTITCITSTDIDVDMNWYQQKPDQPPKLLISQGNTLRPGVPSRFSSSGSGTDFTFTISSLEAEDAATYYCLQSDNLPLTFGQGTKLEIKRTVAAPSVFIFPPSDEQLKSGTASVVCLLNNFYPREAKVQWKVDNALQSGNSQESVTEQDSKDSTYSLSSTLTLSKADYEKHKVYACEVTHQGLSSPVTKSFNRGEC
notes: DVD-Ig, outer AB273, inner AB271, linker set 1; V1 wt hIgG1, V2 kappa; also called DVD1269H; DVD1269L
B9: DVD1267 (bispecific antibody, human IgG1, kappa)
heavy: not shown
light: DIQMTQSPSSLSASVGDRVTITCRASSGIISYIDWFQQKPGKAPKRLIYATFDLASGVPSRFSGSGSGTDYTLTISSLQPEDFATYYCRQVGSYPETFGQGTKLEIKRTVAAPDTQVTQSPSSLSASVGDRVTITCITSTDIDVDMNWYQQKPGKPPKLLISQGNTLRPGVPSRFSSSGSGTDFTFTISSLQPEDFATYYCLQSDNLPLTFGQGTKLEIKRTVAAPSVFIFPPSDEQLKSGTASVVCLLNNFYPREAKVQWKVDNALQSGNSQESVTEQDSKDSTYSLSSTLTLSKADYEKHKVYACEVTHQGLSSPVTKSFNRGEC
notes: DVD-Ig, outer AB273, inner AB270, linker set 1; V1 wt hIgG1, V2 kappa; also called DVD1267H; DVD1267L
B10: DVD1271 (bispecific antibody, human IgG1, kappa)
heavy: not shown
light: B9 light with D114E, Q116T
notes: DVD-Ig, outer AB273, inner AB272, linker set 1; V1 wt hIgG1, V2 kappa; also called DVD1271H; DVD1271L
B11: DVD1263 (bispecific antibody, human IgG1, kappa)
heavy: not shown
light: DIQMTQSPSSLSASVGDRVTITCRASSGIISYIDWFQQKPGKAPKRLIYATFDLASGVPSRFSGSGSGTDYTLTISSLQPEDFATYYCRQVGSYPETFGQGTKLEIKRTVAAPDIQMTQSPSSLSASVGDRVTITCRASGNIHNYLTWYQQTPGKAPKLLIYNAKTLADGVPSRFSGSGSGTDYTFTISSLQPEDIATYYCQHFWSIPYTFGQGTKLQITRTVAAPSVFIFPPSDEQLKSGTASVVCLLNNFYPREAKVQWKVDNALQSGNSQESVTEQDSKDSTYSLSSTLTLSKADYEKHKVYACEVTHQGLSSPVTKSFNRGEC
notes: V1 wt hIgG1, V2 kappa; also called DVD1263H; DVD1263L
B12: DVD1265 (bispecific antibody, human IgG1, kappa)
heavy: not shown
light: B11 light
notes: V1 wt hIgG1, V2 kappa; also called DVD1265H; DVD1265L

Where a chain is given by its changes, count along the chain named.

The target of one assay is T2, Recombinant Human IL-1β (human, UniProt P01584 117-269).
T2 construct: bought reagent; also called IL-1B
Put plainly: Biacore SPR; C-terminal VD. The protocol: (§1) The BIACORE assay (Biacore, Inc, Piscataway, N.J.) determines the affinity of antibodies or DVD-Ig with kinetic measurements of on-rate and off-rate constants. Binding of antibodies or DVD-Ig to a target antigen (for example, a purified recombinant target antigen) was determined by surface plasmon resonance-based measurements with a Biacore® 1000 or 3000 instrument (Biacore® AB, Uppsala, Sweden) using running HBS-EP (10 mM HEPES [pH 7.4], 150 mM NaCl, 3 mM EDTA, and 0.005% surfactant P20) at 25° C. All chemicals were obtained from Biacore® AB (Uppsala, Sweden) or otherwise from a different source as described in the text. For example, approximately 5000 RU of goat anti-mouse IgG, (Fcγ), fragment specific polyclonal antibody (Pierce Biotechnology Inc, Rockford, Ill.) diluted in 10 mM sodium acetate (pH 4.5) was directly immobilized across a CM5 research grade biosensor chip using a standard amine coupling kit according to manufacturer's instructions and procedures at 25 μg/ml. Unreacted moieties on the biosensor surface were blocked with ethanolamine. Modified carboxymethyl dextran surface in flowcell 2 and 4 was used as a reaction surface. Unmodified carboxymethyl dextran without goat anti-mouse IgG in flow cell 1 and 3 was used as the reference surface. For kinetic analysis, rate equations derived from the 1:1 Langmuir binding model were fitted simultaneously to association and dissociation phases of all eight injections (using global fit analysis) with the use of Biaevaluation 4.0.1 software. Purified antibodies or DVD-Ig were diluted in HEPES-buffered saline for capture across goat anti-mouse IgG specific reaction surfaces. Antibodies or DVD-Ig to be captured as a ligand (25 μg/ml) were injected over reaction matrices at a flow rate of 5 μl/min. The association and dissociation rate constants, kₒₙ (M⁻¹s⁻¹) and koff (s⁻¹) were determined under a continuous flow rate of 25 μl/min. Rate constants were derived by making kinetic binding measurements at different antigen concentrations ranging from 10−200 nM. The equilibrium dissociation constant (M) of the reaction between antibodies or DVD-Igs and the target antigen was then calculated from the kinetic rate constants by the following formula: KD=koff/kₒₙ. Binding was recorded as a function of time and kinetic rate constants are calculated.
In general terms: SPR reads the build-up and loss of mass on a sensor chip optically.
For B1, the equilibrium dissociation constant (Kd) was determined as 1.4 nM, the koff was found to be 0.00045 s⁻¹ and the kon came out at 320000 M⁻¹ s⁻¹.
Taken in the same sequence, the figures for B2 were 2.1 nM, 0.00049 s⁻¹ and 230000 M⁻¹ s⁻¹.
For B3, the Kd turned out to be 2 nM, the koff came to 0.00058 s⁻¹ and the association rate constant (kon) came out at 280000 M⁻¹ s⁻¹.
On the same counts, the results for B4 are 0.27 nM, 0.00019 s⁻¹ and 690000 M⁻¹ s⁻¹.
On the same counts, the results for B5 are 0.1 nM, 0.00026 s⁻¹ and 2.5e+06 M⁻¹ s⁻¹.
In the case of B6, the dissociation constant (Kd) turned out to be 0.24 nM, the off-rate (koff) is 0.0002 s⁻¹ and the association rate constant (kon) was 820000 M⁻¹ s⁻¹.
On the same counts, the results for B7 are 0.15 nM, 0.00011 s⁻¹ and 760000 M⁻¹ s⁻¹.
On the same counts, the results for B8 are 1.1 nM, 0.00043 s⁻¹ and 400000 M⁻¹ s⁻¹.
Taken in the same sequence, the figures for B9 were 1.1 nM, 0.00041 s⁻¹ and 370000 M⁻¹ s⁻¹.
Turning to B10, the Kd was found to be 2.2 nM, the dissociation rate constant (koff) was found to be 0.00071 s⁻¹ and the kon came to 320000 M⁻¹ s⁻¹.
On the same counts, the results for B11 are 0.17 nM, 0.00015 s⁻¹ and 890000 M⁻¹ s⁻¹.
Taken in the same sequence, the figures for B12 were 0.088 nM, 0.0003 s⁻¹ and 3.4e+06 M⁻¹ s⁻¹.

The target of a further assay is T1, Recombinant Human IL-17. Put plainly: Biacore SPR; N-terminal VD. The protocol:
as §1
As for B1, the equilibrium dissociation constant (Kd) was determined as 0.12 nM, the dissociation rate constant (koff) was 2.3e-05 s⁻¹ and the kon came to 190000 M⁻¹ s⁻¹.
Taken in the same sequence, the figures for B2 were 0.16 nM, 2.2e-05 s⁻¹ and 130000 M⁻¹ s⁻¹.
Consider B3, for which the Kd is 0.1 nM, the off-rate (koff) came to 2e-05 s⁻¹ and the on-rate constant (kon) worked out at 200000 M⁻¹ s⁻¹.
As for B4, the dissociation constant Kd was determined as 0.2 nM, the koff was 2.2e-05 s⁻¹ and the kon was determined as 110000 M⁻¹ s⁻¹.
Taken in the same sequence, the figures for B5 were 0.46 nM, 5.8e-05 s⁻¹ and 130000 M⁻¹ s⁻¹.
Taken in the same sequence, the figures for B6 were 0.39 nM, 5.8e-05 s⁻¹ and 150000 M⁻¹ s⁻¹.
On the same counts, the results for B7 are 0.15 nM, 2.1e-05 s⁻¹ and 140000 M⁻¹ s⁻¹.
Take B8: the dissociation constant (Kd) stood at 0.032 nM, the off-rate constant (koff) worked out at 5e-06 s⁻¹ and the association rate constant (kon) turned out to be 160000 M⁻¹ s⁻¹.
Turning to B9, the Kd was not above 0.066 nM, the off-rate constant (koff) was not above 1e-05 s⁻¹ and the on-rate (kon) came out at 150000 M⁻¹ s⁻¹.
Taken in the same sequence, the figures for B10 were 0.11 nM, 1.2e-05 s⁻¹ and 110000 M⁻¹ s⁻¹.
On the same counts, the results for B11 are 0.061 nM, 7.8e-06 s⁻¹ and 130000 M⁻¹ s⁻¹.
For B12, the Kd was determined as 0.096 nM, the koff came out at 1.1e-05 s⁻¹ and the kon stood at 120000 M⁻¹ s⁻¹.

As a reminder, the Kd is a measure of binding affinity in units of concentration. What is called koff is the first-order rate constant of dissociation. One may read the kon as a measure of how fast the partners come together.
